The values that follow are results of earlier work, collected in publication PMC4549621.

This data set addresses amyloid-beta monomer Abeta (Homo sapiens) (UniProt P05067).

A word on the Kd: it is the free concentration of one partner at which half of the binding sites on the other are occupied at equilibrium, for simple one-to-one binding. Take gantenerumab: the Kd was 0.6 nM.
